Reference: patent publication US20210122826A1 (MIT, published 2021)

T1: Human KLRF1 (human, UniProt Q9NZS2 1-231)
T1 construct: also called hKLRF1
T1 sequence: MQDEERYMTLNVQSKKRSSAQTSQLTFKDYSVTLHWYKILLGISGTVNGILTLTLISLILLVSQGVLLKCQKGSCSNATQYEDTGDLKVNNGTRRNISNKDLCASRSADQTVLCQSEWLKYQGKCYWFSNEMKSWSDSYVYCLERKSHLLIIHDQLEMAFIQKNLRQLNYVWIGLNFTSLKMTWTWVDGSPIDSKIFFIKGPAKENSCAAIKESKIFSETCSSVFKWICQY

T2: Human CD209 (human, UniProt Q9NNX6 1-404)
T2 construct: also called hCD209
T2 sequence: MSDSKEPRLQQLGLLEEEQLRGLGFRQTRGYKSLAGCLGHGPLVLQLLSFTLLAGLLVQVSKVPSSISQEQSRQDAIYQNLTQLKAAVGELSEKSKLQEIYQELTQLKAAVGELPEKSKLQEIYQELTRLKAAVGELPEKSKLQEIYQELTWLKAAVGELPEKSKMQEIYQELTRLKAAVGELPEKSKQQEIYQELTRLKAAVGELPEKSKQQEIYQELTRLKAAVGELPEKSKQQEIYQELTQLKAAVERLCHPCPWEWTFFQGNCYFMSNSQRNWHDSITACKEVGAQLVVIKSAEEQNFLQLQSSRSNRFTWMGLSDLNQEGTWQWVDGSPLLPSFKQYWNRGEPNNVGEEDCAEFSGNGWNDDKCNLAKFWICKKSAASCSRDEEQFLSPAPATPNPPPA

T3: Human Clec4E (human, UniProt Q9ULY5 1-219)
T3 construct: also called hClec4E
T3 sequence: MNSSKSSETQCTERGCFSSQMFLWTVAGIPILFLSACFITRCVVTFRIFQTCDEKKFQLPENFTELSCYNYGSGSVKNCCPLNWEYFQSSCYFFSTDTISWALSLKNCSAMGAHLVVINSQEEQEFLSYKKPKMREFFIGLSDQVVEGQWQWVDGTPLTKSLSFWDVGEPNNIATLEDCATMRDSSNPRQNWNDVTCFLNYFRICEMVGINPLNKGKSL

T4: Human Clec5A (human, UniProt Q9NY25 1-188)
T4 construct: also called hClec5A
T4 sequence: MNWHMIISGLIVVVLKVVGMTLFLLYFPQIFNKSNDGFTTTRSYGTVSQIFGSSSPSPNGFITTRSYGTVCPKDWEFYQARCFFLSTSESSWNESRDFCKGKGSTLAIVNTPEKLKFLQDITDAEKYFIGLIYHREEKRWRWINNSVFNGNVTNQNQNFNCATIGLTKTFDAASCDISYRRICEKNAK

T5: Human KLRG1 (human, UniProt Q96E93 1-195)
T5 construct: also called hKLRG1
T5 sequence: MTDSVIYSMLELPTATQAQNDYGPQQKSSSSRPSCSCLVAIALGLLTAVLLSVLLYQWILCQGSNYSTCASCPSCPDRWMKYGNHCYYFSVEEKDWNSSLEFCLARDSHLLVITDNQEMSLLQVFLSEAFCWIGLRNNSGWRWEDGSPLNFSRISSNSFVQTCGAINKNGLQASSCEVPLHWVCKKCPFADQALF

T6: Human Clec7A (human, UniProt Q9BXN2 1-247)
T6 construct: also called hClec7A
T6 sequence: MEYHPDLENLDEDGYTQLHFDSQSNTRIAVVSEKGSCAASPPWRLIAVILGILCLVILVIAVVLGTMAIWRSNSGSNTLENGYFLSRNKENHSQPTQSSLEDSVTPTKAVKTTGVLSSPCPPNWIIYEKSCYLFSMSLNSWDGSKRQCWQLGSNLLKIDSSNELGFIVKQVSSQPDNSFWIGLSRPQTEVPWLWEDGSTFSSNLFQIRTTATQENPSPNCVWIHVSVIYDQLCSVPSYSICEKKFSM

T7: Human KLRF2 (human, UniProt D3W0D1 1-207)
T7 construct: also called hKLRF2
T7 sequence: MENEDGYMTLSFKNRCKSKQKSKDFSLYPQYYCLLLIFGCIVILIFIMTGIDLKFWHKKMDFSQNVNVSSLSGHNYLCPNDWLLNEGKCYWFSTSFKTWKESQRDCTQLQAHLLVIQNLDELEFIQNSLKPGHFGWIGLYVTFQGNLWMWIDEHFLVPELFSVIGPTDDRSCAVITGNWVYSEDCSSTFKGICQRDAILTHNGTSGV

T8: Human CD94 (human, UniProt Q13241 1-179)
T8 construct: also called hCD94
T8 sequence: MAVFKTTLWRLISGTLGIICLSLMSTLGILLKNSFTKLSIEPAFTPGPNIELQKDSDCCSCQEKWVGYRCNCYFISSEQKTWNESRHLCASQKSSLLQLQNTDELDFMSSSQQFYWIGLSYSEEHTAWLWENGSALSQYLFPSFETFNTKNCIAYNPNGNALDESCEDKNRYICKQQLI

T9: Human Clec12B (human, UniProt Q2HXU8 1-276)
T9 construct: also called hClec12B
T9 sequence: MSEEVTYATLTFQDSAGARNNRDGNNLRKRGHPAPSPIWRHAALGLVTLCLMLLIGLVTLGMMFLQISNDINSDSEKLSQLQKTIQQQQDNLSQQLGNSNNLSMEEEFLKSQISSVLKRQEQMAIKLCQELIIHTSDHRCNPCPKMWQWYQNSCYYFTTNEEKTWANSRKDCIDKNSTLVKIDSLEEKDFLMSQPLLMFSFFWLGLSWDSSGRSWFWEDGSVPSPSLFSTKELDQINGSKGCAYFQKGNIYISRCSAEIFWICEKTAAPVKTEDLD

T10: Human Clec10A (human, UniProt Q8IUN9 1-316)
T10 construct: also called hClec10A
T10 sequence: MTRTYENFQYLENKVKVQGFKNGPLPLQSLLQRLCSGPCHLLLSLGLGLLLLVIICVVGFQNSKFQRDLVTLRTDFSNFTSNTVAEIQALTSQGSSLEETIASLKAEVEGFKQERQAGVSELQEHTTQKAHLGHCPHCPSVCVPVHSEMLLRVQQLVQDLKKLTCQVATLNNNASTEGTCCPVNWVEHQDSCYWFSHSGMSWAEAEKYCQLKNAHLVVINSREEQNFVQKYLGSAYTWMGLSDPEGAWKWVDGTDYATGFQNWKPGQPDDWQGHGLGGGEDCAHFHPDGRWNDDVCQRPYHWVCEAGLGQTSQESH


Assays:
Test in all cases: flow, Jurkat
Human KLRF1 = molecular target: T1, Human KLRF1
Human OLR1 = molecular target: T11, Human OLR1 (human, UniProt P78380 1-273)
T11 construct: also called hOLR1

Human CD209 = molecular target: T2, Human CD209
Human Clec9A = molecular target: T12, Human Clec9A (human, UniProt Q6UXN8 1-241)
T12 construct: also called hClec9A
T12 sequence (Q6UXN8 whole entry): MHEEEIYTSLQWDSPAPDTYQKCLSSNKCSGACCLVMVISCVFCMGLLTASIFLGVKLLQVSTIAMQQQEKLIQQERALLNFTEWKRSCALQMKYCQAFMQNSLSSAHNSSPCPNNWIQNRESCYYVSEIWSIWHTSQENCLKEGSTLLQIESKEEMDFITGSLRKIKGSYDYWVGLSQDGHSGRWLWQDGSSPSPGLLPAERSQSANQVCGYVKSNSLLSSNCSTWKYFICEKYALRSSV

Human Clec4E = molecular target: T3, Human Clec4E
Human Clec5A = molecular target: T4, Human Clec5A
Human KLRG1 = molecular target: T5, Human KLRG1
Human Clec7A = molecular target: T6, Human Clec7A
Human KLRF2 = molecular target: T7, Human KLRF2
Human CD94 = molecular target: T8, Human CD94
Human Clec12B = molecular target: T9, Human Clec12B
Human Clec10A = molecular target: T10, Human Clec10A

binding result (Human KLRF1)	binding result (Human OLR1)	binding result (Human CD209)	binding result (Human Clec9A)	binding result (Human Clec4E)	binding result (Human Clec5A)	binding result (Human KLRG1)	binding result (Human Clec7A)	binding result (Human KLRF2)	binding result (Human CD94)	binding result (Human Clec12B)	binding result (Human Clec10A)	Binder
no binding (tested: 100 nM)	no binding (tested: 100 nM)	no binding (tested: 100 nM)	no binding (tested: 100 nM)	no binding (tested: 100 nM)	no binding (tested: 100 nM)	no binding (tested: 100 nM)	no binding (tested: 100 nM)	no binding (tested: 100 nM)	no binding (tested: 100 nM)	no binding (tested: 100 nM)	no binding (tested: 100 nM)	KW1.2.1 (antibody, V domains shown) VH: EVQLVESGGGLVQPGGSLRLSCAASGSTFSSYAMSWVRQAPGKGLEWVSTISGSGGSTYYADSVKGRFTISRDNSRNTLYLQMNSLRAEDTAVYYCARGGLIPSGFDYWGQGTLVTVSS VL: DIQMTQSPSSPSASVGDRVTITCRASQSISSYLNWYQQKPGKAPKLLIYAASSLLSGVPSRFSGSGSGTDFTLTISSLQPEDFATYYCQQTYSTPLTFGQGTKVEIK
no binding (tested: 100 nM)	no binding (tested: 100 nM)	no binding (tested: 100 nM)	no binding (tested: 100 nM)	no binding (tested: 100 nM)	no binding (tested: 100 nM)	no binding (tested: 100 nM)	no binding (tested: 100 nM)	no binding (tested: 100 nM)	no binding (tested: 100 nM)	no binding (tested: 100 nM)	no binding (tested: 100 nM)	KW7.2.2 (antibody, V domains shown) VH: not shown VL: DIQMTQSPSSLSASVGDRVTITCRASQSISSYLNWYQQKPGKAPRFLIYAASSLQSGVPSRFSGSGSGTDFTLTISSLQPEDFATYYCQQTYSTPLTFGQGTKVEIK
no binding (tested: 100 nM)	no binding (tested: 100 nM)	no binding (tested: 100 nM)	no binding (tested: 100 nM)	no binding (tested: 100 nM)	no binding (tested: 100 nM)	no binding (tested: 100 nM)	no binding (tested: 100 nM)	no binding (tested: 100 nM)	no binding (tested: 100 nM)	no binding (tested: 100 nM)	no binding (tested: 100 nM)	KW7.3.7 (antibody, V domains shown) VH: EVQLVESGGGLVQPGGSLRLSCAASGFTFSSYAMSWVRQAPGKGLEWVSATSGSGGSTYYADSAKGRFTISRDNSKNTLYLQMNSLRAEDTAVYYCARGGYLPDAFDYWGRGTLVTVSS VL: DIQMTQSPSSLSASVGDRVTITCWASQSISSYLNWYQQEPGKAPKLLIYAASSLQSGVPSRFSGSGSGTDFTLTISSLQPEDFATYYCQQTYSTPLTFGQGTKVEIK
no binding (tested: 100 nM)	no binding (tested: 100 nM)	no binding (tested: 100 nM)	no binding (tested: 100 nM)	no binding (tested: 100 nM)	no binding (tested: 100 nM)	no binding (tested: 100 nM)	no binding (tested: 100 nM)	no binding (tested: 100 nM)	no binding (tested: 100 nM)	no binding (tested: 100 nM)	no binding (tested: 100 nM)	KW1.3.12 (antibody, human IgG1, V domains shown) VH: EVQLVESGGGLVQPGGSLRLSCAASGFTFSSYAMSWVRQAPGKGLEWVSTISGSGGSTYYADSVKGRFTISRDNSRNTLYLQMNSLRAEDTAVYYCARGGLIPSGFDYWGQGTLVTVSS VL: DIQMTQSPSSLSASVGDRVTITCRASQSISSYLNWYQQKPGKAPKLLIYAASSLLSGVPSRFSGSGSGTDFTLTISSLQPEDFATYYCQQTYSAPLTFGQGTKVEIK
